Measurements taken from publication PMC7863765.

Assays:
[1] = molecular target: polyphosphorylated full-length SARS-CoV-2 nucleocapsid protein pN.1-419 (SARS-CoV-2) (UniProt P0DTC9); assay: SEC-MALS
[2] = molecular target: polyphosphorylated full-length SARS-CoV-2 nucleocapsid protein pN.1-419 (SARS-CoV-2) (UniProt P0DTC9); assay: SEC

untagged full-length human 14-3-3γ (from UniProt P61981 1-247) (natural protein)
stoichiometry N (14-3-3γ chains per pN.1-419 chain (2:2)) [1]: 1
Kd [2]: 1500 nM
stoichiometry N (14-3-3γ chains per pN.1-419 chain (2:2)) [2]: 1
